Paper PMC10164591, “RNA binding proteins Smaug and Cup induce CCR4–NOT-dependent deadenylation of the nanos mRNA in a reconstituted system”

What was measured:
His8-MBP-Cup MC = molecular target: T1, His8-MBP-Cup MC (Drosophila melanogaster, UniProt Q9VMA3 418-1117); test: UV crosslinking + Ni-NTA pull-down; 6 M urea wash; UV crosslinking: 16 mM HEPES pH 7.6, 50 mM K acetate, 1 mM Mg acetate, 0.8 mM ATP, 0.24 mg/ml yeast tRNA, 1 mM DTT, 10% glycerol, room temp; EMSA: deadenylation buffer with tRNA (omitted for A70 PABPC), 5% glycerol, 25 C; details: protein: recombinant; tags: N-terminal His8-MBP; label: 5'-32P
T1 sequence: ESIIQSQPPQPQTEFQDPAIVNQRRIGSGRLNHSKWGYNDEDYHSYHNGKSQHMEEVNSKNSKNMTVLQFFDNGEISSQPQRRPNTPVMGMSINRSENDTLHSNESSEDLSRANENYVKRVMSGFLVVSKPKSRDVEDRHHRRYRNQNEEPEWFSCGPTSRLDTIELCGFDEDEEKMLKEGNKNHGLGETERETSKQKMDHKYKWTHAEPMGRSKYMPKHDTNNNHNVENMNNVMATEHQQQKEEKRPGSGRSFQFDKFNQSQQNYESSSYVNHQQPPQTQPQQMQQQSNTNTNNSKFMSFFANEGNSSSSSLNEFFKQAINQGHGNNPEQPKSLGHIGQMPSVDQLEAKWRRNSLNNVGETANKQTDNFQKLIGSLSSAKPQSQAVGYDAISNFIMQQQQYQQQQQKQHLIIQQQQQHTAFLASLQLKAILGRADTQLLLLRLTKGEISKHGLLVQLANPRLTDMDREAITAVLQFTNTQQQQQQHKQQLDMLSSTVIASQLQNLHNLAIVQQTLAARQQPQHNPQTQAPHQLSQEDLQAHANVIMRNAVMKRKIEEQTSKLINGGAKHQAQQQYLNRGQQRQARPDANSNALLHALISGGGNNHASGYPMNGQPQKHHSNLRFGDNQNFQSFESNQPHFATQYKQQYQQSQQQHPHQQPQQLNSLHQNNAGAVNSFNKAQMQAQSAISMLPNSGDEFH

His8-MBP-Cup M = molecular target: T2, His8-MBP-Cup M (Drosophila melanogaster, UniProt Q9VMA3 418-770); test: as above; details: protein: recombinant; tags: N-terminal His8-MBP; label: 5'-32P
T2 sequence: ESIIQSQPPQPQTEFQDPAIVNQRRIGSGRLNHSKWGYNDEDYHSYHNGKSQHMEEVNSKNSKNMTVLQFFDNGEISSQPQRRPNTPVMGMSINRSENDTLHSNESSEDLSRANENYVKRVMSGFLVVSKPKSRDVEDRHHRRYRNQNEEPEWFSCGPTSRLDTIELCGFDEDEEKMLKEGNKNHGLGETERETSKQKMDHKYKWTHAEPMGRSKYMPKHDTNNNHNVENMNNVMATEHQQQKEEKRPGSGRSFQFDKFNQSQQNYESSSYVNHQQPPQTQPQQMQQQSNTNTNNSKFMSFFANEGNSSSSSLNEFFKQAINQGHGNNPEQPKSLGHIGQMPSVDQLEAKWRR

His8-MBP-Cup C = molecular target: T3, His8-MBP-Cup C (Drosophila melanogaster, UniProt Q9VMA3 771-1117); test: as above; details: protein: recombinant; tags: N-terminal His8-MBP; label: 5'-32P
T3 sequence: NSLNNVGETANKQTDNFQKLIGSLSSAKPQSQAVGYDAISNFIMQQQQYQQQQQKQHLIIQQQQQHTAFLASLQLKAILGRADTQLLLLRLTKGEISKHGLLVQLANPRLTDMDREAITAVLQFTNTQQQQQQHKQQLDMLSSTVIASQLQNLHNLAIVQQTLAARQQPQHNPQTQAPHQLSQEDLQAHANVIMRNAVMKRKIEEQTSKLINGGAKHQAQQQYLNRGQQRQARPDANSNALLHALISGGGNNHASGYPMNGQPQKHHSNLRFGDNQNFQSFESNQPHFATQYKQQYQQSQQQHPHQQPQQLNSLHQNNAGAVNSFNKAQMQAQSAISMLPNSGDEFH

His8-MBP-Cup full length = molecular target: T4, His8-MBP-Cup full length (Drosophila melanogaster, UniProt Q9VMA3 1-1117); test: as above; details: protein: recombinant; tags: N-terminal His8-MBP; label: 5'-32P
T4 sequence: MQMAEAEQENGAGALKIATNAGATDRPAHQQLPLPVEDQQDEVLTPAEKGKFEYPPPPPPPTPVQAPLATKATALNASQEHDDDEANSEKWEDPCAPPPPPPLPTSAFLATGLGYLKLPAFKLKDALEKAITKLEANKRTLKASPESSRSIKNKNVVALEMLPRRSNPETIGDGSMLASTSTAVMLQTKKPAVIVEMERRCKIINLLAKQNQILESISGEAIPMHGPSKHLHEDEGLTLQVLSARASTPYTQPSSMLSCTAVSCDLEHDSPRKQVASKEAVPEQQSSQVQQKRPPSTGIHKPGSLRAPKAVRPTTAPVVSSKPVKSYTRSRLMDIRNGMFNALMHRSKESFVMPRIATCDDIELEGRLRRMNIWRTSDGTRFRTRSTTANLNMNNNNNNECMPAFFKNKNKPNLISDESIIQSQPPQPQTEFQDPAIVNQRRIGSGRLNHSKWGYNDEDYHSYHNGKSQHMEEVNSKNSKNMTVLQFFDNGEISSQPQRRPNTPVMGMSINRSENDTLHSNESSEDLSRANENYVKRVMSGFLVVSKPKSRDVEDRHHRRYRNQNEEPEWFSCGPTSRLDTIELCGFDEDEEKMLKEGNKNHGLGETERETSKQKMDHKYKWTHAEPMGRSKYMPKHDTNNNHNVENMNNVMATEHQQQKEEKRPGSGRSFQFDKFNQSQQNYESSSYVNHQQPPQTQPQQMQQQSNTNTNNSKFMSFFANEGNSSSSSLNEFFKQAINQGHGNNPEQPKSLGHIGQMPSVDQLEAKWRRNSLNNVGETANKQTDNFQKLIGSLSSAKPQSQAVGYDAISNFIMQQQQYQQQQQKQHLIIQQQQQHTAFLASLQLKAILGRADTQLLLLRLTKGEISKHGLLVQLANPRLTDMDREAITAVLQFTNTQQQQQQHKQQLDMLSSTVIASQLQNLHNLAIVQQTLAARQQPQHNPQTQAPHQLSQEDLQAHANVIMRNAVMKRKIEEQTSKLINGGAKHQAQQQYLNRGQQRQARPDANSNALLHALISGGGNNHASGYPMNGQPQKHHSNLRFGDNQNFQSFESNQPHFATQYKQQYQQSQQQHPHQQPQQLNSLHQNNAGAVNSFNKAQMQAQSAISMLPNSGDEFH

MBP-Cup N = molecular target: T5, MBP-Cup N (Drosophila melanogaster, UniProt Q9VMA3 1-417); test: UV crosslinking; UV crosslinking: 16 mM HEPES pH 7.6, 50 mM K acetate, 1 mM Mg acetate, 0.8 mM ATP, 0.24 mg/ml yeast tRNA, 1 mM DTT, 10% glycerol, room temp; EMSA: deadenylation buffer with tRNA (omitted for A70 PABPC), 5% glycerol, 25 C; details: protein: recombinant; tags: N-terminal MBP; label: 5'-32P
T5 sequence: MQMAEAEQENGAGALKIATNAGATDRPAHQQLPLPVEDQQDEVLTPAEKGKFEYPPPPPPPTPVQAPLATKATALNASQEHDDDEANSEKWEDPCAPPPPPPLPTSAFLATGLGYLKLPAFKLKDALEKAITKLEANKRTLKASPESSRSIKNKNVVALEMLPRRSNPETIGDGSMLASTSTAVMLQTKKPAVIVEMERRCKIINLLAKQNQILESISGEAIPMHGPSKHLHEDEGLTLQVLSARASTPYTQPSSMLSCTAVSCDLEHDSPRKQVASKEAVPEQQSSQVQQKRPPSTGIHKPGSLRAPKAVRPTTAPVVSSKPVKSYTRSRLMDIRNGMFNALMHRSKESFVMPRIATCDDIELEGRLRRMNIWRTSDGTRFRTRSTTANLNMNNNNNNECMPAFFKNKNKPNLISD

MBP-Cup NM = molecular target: T6, MBP-Cup NM (Drosophila melanogaster, UniProt Q9VMA3 1-770); test: as above; details: protein: recombinant; tags: N-terminal MBP; label: 5'-32P
T6 sequence: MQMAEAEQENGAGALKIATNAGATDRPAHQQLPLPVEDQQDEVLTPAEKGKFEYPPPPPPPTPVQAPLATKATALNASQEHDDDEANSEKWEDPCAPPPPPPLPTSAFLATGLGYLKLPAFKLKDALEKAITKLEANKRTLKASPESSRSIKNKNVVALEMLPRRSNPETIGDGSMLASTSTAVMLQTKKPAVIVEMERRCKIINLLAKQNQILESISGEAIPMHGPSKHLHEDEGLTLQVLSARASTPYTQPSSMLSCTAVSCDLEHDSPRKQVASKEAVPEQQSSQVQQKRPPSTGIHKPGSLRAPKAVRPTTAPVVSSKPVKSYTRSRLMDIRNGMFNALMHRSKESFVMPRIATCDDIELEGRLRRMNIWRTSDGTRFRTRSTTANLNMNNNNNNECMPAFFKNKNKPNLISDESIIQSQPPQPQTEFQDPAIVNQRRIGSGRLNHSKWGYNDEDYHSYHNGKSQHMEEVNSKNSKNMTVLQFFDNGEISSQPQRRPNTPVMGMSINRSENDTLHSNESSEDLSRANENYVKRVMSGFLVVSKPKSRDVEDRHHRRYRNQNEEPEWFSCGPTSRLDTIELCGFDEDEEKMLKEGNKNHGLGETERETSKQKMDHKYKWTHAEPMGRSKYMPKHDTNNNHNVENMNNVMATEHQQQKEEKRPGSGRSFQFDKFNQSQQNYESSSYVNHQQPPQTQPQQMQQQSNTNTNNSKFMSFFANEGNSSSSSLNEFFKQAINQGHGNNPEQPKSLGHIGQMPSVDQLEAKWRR

MBP-Cup C = molecular target: T7, MBP-Cup C (Drosophila melanogaster, UniProt Q9VMA3 771-1117); test: as above; details: protein: recombinant; tags: N-terminal MBP; label: 5'-32P
T7 sequence: T3 sequence

MBP-Cup MC = molecular target: T8, MBP-Cup MC (Drosophila melanogaster, UniProt Q9VMA3 418-1117); test: as above; details: protein: recombinant; tags: N-terminal MBP; label: 5'-32P
T8 sequence: T1 sequence

MBP-Cup M = molecular target: T9, MBP-Cup M (Drosophila melanogaster, UniProt Q9VMA3 418-770); test: as above; details: protein: recombinant; tags: N-terminal MBP; label: 5'-32P
T9 sequence: T2 sequence

Measured: binding result

B1: 18nt RNA oligonucleotide (ssRNA)
RNA: GGGUUUAGUGCGCACGUG
binds: His8-MBP-Cup MC | His8-MBP-Cup M | His8-MBP-Cup C | His8-MBP-Cup full length | MBP-Cup N | MBP-Cup NM | MBP-Cup C | MBP-Cup MC | MBP-Cup M
